Target: the molecule itself
Test: SDS-PAGE

B1: radixin (natural protein, UniProt P26043 1-583, looked up)
chain: MPKPINVRVTTMDAELEFAIQPNTTGKQLFDQVVKTVGLREVWFFGLQYVDSKGYSTWLKLNKKVTQQDVKKENPLQFKFRAKFFPEDVSEELIQEITQRLFFLQVKEAILNDEIYCPPETAVLLASYAVQAKYGDYNKEIHKPGYLANDRLLPQRVLEQHKLTKEQWEERIQNWHEEHRGMLREDSMMEYLKIAQDLEMYGVNYFEIKNKKGTELWLGVDALGLNIYEHDDKLTPKIGFPWSEIRNISFNDKKFVIKPIDKKAPDFVFYAPRLRINKRILALCMGNHELYMRRRKPDTIEVQQMKAQAREEKHQKQLERAQLENEKKKREIAEKEKERIEREKEELMERLRQIEEQTVKAQKELEEQTRKALELEQERQRAKEEAERLDRERRAAEEAKSAIAKQAADQMKNQEQLAAELAEFTAKIALLEEAKKKKEEEATEWQHKAFAAQEDLEKTKEELKTVMSAPPPPPPPPVIPPTENEHDEQDENSAEASAELSSEGVMNHRSEEERVTETQKNERVKKQLQALSSELAQARDETKKTQNDVLHAENVKAGRDKYKTLRQIRQGNTKQRIDEFEAM
stoichiometry N: 2

Source: publication PMC2289953 (The Journal of Cell Biology, 1991)
